Experimental data: the DeepSol protein solubility set

Assay: soluble on expression in E. coli; label from the status in PepcDB or PDB records
For “MRTLRIGIVGLGGIAQKAWLPVLTNTAGWTLQGAWSPSRDKALRICESWRIPYVDSLANLASSCDAVFVHSSTASHYAVVSELLNAGVHVCVDKPLAENLRDAERLVALAAQKKLTLMVGFNRRFAPLYRELKTRLGTAASLRMDKHRTDSVGPHDLRFTLLDDYLHVVDTALWLAGGEARLASGTLLTSESGEMCYAEHHFSADKLQITTSMHRRAGSQRESVQAVTDGGLYDVTDMREWREERGQGILIKPIPSWQTTLEQRGFVGCARHFIDCVQNQTVPETAGEQAILAQRVVEALWRDAISE”, the “soluble on expression in E. coli” value was “not soluble”.
In the case of “MAHHHHHHMLWAIKHTDYPTMSTGLETLDLFLENVSKSEYAEVFFKAYMQRILVDVMVASMDSLHASGFQHHVRILQKLFNVSSMVPPDTPTIGKDVIRAYLLDSLTVIPTLTTTSILSFVDTCYESFTDDERFRTQFADFLIEVKVWGAEQENKMQEEDERRLREETIPGFSNLSMEIRRQTCSPPSDPGRCADGQGRGPASVRRFHCRRHRHPSKYTCTPLSLFPLKNPSADPAVRDVRPSYFVDCVGG”, the “soluble on expression in E. coli” value is reported as “not soluble”.
For “MAHHHHHHMQDSVLLSEAFDASHRPWPNRPERKKGVSPSGRDFNMTLYRMKGCPYCERVEWLLRYHLVPFEIVEVGPLTTKGFPDQRFVQVPQIGLEAVADPNNPHAAEKSVAYVADSQHIIAAISAPLGFTKQLSDPRIMETRKWMMERFQAAGFLAINSTWRDAYTTYPHVTPSHYYYQNPIFHVVGATALYALAKYKVAPRFAAEESATSGFPSMENSLQRDPSAWLAAELSGFATRLSGGCHQLHGGKEPDIADVEMYGLTRIIDAHPRLRSALHEGPLKEWCAAMEAALQKRTHVTKK”, the “soluble on expression in E. coli” value was “not soluble”.
In the case of “MTADWVVTFTFDADPSMETMDAWETQLEGFDALVSRVPGHGIDVTVYAPGDWSVFDALAKMAGEVMPVVQAKSPIAVQIISEPEHRLRAEAFTTPELMSAAEIADELGVSRQRVHQLRSTAGFPAPLADLRGGAVWDAAAVRRFAETWERKPGRPHTGTAKFAYSWAVGPAVGRSGKAPNVRWRVENPDKIRFVLRNIGDDIAEDVEIDLSRIDAITRNVPKKTVIRPGEGLNMVLIAAWGHPLPNQLYVRWAGQDEWAAVPLHPAH”, the “soluble on expression in E. coli” value is reported as “soluble”.
With “QNNKDEKKITKIGVLQFVSHPSLDLIYKGIQDGLAEEGYKDDQVKIDFMNSEGDQSKVATMSKQLVANGNDLVVGIATPAAQGLASATKDLPVIMAAITDPIGANLVKDLKKPGGNVTGVSDHNPAQQQVELIKALTPNVKTIGALYSSSEDNSKTQVEEFKAYAEKAGLTVETFAVPSTNEIASTVTVMTSKVDAIWVPIDNTIASGFPTVVSSNQSSKKPIYPSATAMVEVGGLASVVIDQHDLGVATGKMIVQVLKGAKPADTPVNVFSTGKSVINKKIAQELGITIPESVLKEAGQVI” the “soluble on expression in E. coli” value was “not soluble”.
With “MGSSHHHHHHSSGENLYFQGHMDVLASGEKSRMLFERTKELFPGGVNSPVRAAVKPYPFYVKRGEGAYLYTVDGARIVDLVLAYGPLILGHKHPRVLEAVEEALARGWLYGAPGEAEVLLAEKILGYVKRGGMIRFVNSGTEATMTAIRLARGYTGRDLILKFDGCYHGSHDAVLVAAGSAAAHYGVPTSAGVPEAVARLTLVTPYNDVEALERVFAEYGDRIAGVIVEPVIANAGVIPPRREFLAALQRLSRESGALLILDEVVTGFRLGLEGAQGYFNIEGDIIVLGKIIGGGFPVGAVAGSREVMSLLTPQGKVFNAGTFNAHPITMAAGLATLKALEEEPVYSVSREAAKALEEAASEVLDRTGLPYTINRVESMMQLFIGVEEVSNAAQARKADKKFYVKLHEEMLRRGVFIAPSNLEAVFTGLPHQGEALEIAVEGLRSSLKTVLGS” the “soluble on expression in E. coli” value was “soluble”.
With “MGSDKIHHHHHHMDSSAAFSNPTKLRADLLRGRLDVSVDSSTIAPDSLFGFAERRNPKRAFLFVSRVLGRHIPARPSVMLKSFQDLAHKIPVDLPGPVLVIGMAETAVGLGAGVHRAYSETHSDALYLVSTRHPTGTELFARFEEEHSHASAHLIHLPADPALRDMMLGARSLVLVDDEASTGKTFINLHQALVEAGLSKIERVVTCVLTDWSAGAVSTSMGAVAEQVSLLQGSYSFDEDVSAPLPDMPEVGTVAMGDWPLLTANDWGRMGVLAVADTLAPGLTVNKGERVLVVGTSEFVWRPFLLAERLEKAGADVHFSSTSRSPIALGHAIDHALSFSDNYGLGIPNFLYNVRPGQFDRVLICTETPRQAVPAELIEALNAEVICDE” the “soluble on expression in E. coli” value was “not soluble”.
In the case of “MGEKAFKRPNVLSTIGAFGYRAAVFRNVLEAAKLDPSIYYTFISGPEIDPEQFSKVPENVEFTGFTENPFPYYKGSDLVITAGGHGTIMESLAFGLPILSFPDEKHAEQENNASVLEEAGYGKRMSYLTPPEVILACIREIFEDENYSKKTRRLMELAEVLEHHHHHH”, the “soluble on expression in E. coli” value is reported as “soluble”.
For “MKTPQGNTSASRREVDTSMRNRFEFAGSSLRDRIGSILSMDQTPRPATRANIFMGRTPTPARHLPESRRMFVPDYTSTPAPTAPRQEFRFEDLSRIVAPPIEQTFIQLDSDGELTLPAESSIAVSPPPRPSSEPLRHLSQVSLSARPASTEPVRRDVHWRVHPSAKIRKCTVPKTPSFARPTKSWLNRVNRED”, the “soluble on expression in E. coli” value was “not soluble”.
With “MDYTASYYTDEELAKLFKAAKGDPLELPIVLAAYYGLRRSEIIGLRWDAIDFNPDDPKITIQFTVTEVNFGDGQGNVIIEKEGTKSKASKRTLPLVKPIADLLLQKKKDIENNRRLCGSCYNDKYLDFVHVNEIGERMKPNYISQHFALLLEKHGLKKIRFHDLRHSCASLLYANGVSLKQIQEWLGHSDISTTANIYTHLDYNSKIATANAILPVLFDQLEHHHHHH” the “soluble on expression in E. coli” value was “not soluble”.
In the case of “MPRGLILATPQLPPDGTPFSARYDDVYHSTEGGLAQAHHVFLGGNGLPGGWQGKRSFTIVETGFGQGLNFLATWAAWRDDPQRCGRLDFVSVEKHPFDRAGLALVHAQEGALASLAEALRQAWPVPVPGVHRLVFDAGRVTLTLMLGDAETLLPQLSCAADAFYLDGFSPAKNPDLWQPGVFKQLARIARGGATLATYTAAGAVRHGLREAGFEVRKAPGFGRKRDMTVAAFPTHWRTRRGPAEAPVWPERHAIVLGAGLAGCSVAERLAARGWRITLIDEHEAPAGGASAHRAAAMHPHVSIDDSVLSRLSRAGNLLARRHWEALDRAGFATGFHPTGVLQLAEHADDAAEQQRIVQALGFPADFIAWLDAARAADRVGAGVPQGGWWFAQAGWVAPPDICRAALAAAGEAVELRWRTRIESLLRHDAGWRACDAQGNVIAHAPVVVLANSLDAVRLAPLASAALKPVRGQLTDVPVAALEDGVPWPRAVVCGDGYLLPRERGAPTVRVGSSFQPGETDPDARTADHAANLRRLAGLQPAHAAALARVDPARLLGYVGVRCVSANRLPLIGAVADEAAIMAPGFRLRGPHAALPRVPGLYAALAYGSRGLTWSVLGAELLAAQIDGGPLPLESELAAALDPGRFLMRALRHGKHAA”, the “soluble on expression in E. coli” value is reported as “soluble”.
With “MGSDKIHHHHHHMFSIGKHSDFTPSCVSRMLGDLHFVNQGTAMKFSRYFFSLLTTLPLLACTQVEAPVPEALSQSTGHTAGAAQPQESVIGGSLPIGDSSRTSLDWQGSYEGVVPCASCEGIKTRLTLNNDGTYLLQSQYLGKEQDGKEPKVFEEQGKFSWNASGGAIQLENGAWYQVGENQLFMLDREGKRITGVLAGHYRLLKKQSALLPRF” the “soluble on expression in E. coli” value was “not soluble”.
In the case of “MAQPPDGRLTYMTQHQRVMEWLNSIDRPNGIHFLDMDAKSLLVLMNTLDRKTRSNLEKSCKILLSISRSDKPHLQQLCLHFTTTWNHDQFAEITAQFSPEHSFHSIFMSKKKSPNWITGGWSIDRQKNITSGIFQPEKLRLSATFVERTSRYIEYWLRNFQIDTLRIKVENLIPGKENSIQQSNYTGEIPPLKLKKLIIHGANNIRFINNWLDNLVPNAIDPLDDKKKIIDVEFLDVGKLDQIFHHSLMTTGKVNLTFNRVSTHFTRKTLNFVNSPMINIVARQVPSEAVNSFLKRWCRGEIIEDFQYLHLMETTQWPSQQMHMMDALSGLRYQIVDLKTDVKLRILEKQKEFPKPAQIFQITGPRPGFCAHFGNQFIFEIPKTEDIQHILVNPPISQNTFDEYERQKNRIYMELFRKRLIRLFN”, the “soluble on expression in E. coli” value is reported as “not soluble”.
For “GSHMARYDSLLQALGNTPLVGLQRLSPRWDDGRDGPHVRLWAKLEDRNPTGSIKDRPAVRMIEQAEADGLLRPGATILEPTSGNTGISLAMAARLKGYRLICVMPENTSVERRQLLELYGAQIIFSAAEGGSNTAVATAKELAATNPSWVMLYQYGNPANTDSHYCGTGPELLADLPEITHFVAGLGTTGTLMGTGRFLREHVANVKIVAAEPRYGEGVYALRNMDEGFVPELYDPEILTARYSVGAVDAVRRTRELVHTEGIFAGISTGAVLHAALGVGAGALAAGERADIALVVADAGWKYLSTGAYAGSLDDAETALEGQLWA”, the “soluble on expression in E. coli” value was “soluble”.
With “MSKNIKTPTNQKVLTNVAVVRMKKTGKRFEIACYKNKVVNWRNKSEKDIDEVLQTHTVFSNVSKGQLSKKEELIAAFGIEDQLEICKIILDKGDLQVSEKERQAASDQSLKEVSQLIASMVVNPETKRPVPPSVIDKALQEMHFSLKPNRSSKQQALDAIPKLRETLKIERAKMKIRVAIPTKEAKSVHTKLKTLFSDVEVDDWQDGSLEMVGLIEPGSFRALDDLVRNETKGHGRLEILSLKDVVEGELQIS” the “soluble on expression in E. coli” value was “soluble”.
In the case of “MERYNTMSGKKTESSDNIVLYPGLVKRLIEKGMEALKEKDAKKALTMFEQAEQYDAEPSQILFGKALCYVELGKLDDAVLLTDQMLRNDIGNYYDILQIHLSLLVQLGRYDEVVEMLDVVLAEDRLPAKHAESFYQLLHFSRQMVEDSPTYIKEPLSEELDLKETYDDINERDSLEQWHFLQQMRKHNNPADIRTLLSFVESESNDPALRSYALHMLTMHKVEKRVRIRKFDQEAEVIPVELNADEQQRFGNAVVEQLEARLAVENPSLFKMAEQLWWQFLYALYPFTPKPEQKDLWAGAVHVAVHESNGLPFDEEEIAGMYNCRVQQMLEKGEEIHFVETETFQGISGHSFRMAGDPLEHHHHHH”, the “soluble on expression in E. coli” value is reported as “soluble”.
In the case of “ESVKGAQTDLTSLTDESQEKTLENGSPSSKIAVLEVSGTIQDNGDSSSLLGADGYNHRTFLKNLERAKDDKTVKGIVLKVNSPGGGVYESAEIHKKLEEIKKETKKPIYVSMGSMAASGGYYISTAADKIFATPETLTGSLGVIMESVNYSKLADKLGISFETIKSGAHKDIMSPSREMTKEEKNIMQSMVDNSYEGFVDVISKGRGMPKAEVKKIADGRVYDGRQAKKLNLVDELGFYDDTITAMKKDHKDLKNASVISYEESFGLGSLFSMGANKMFKSEIDFLNMREILSQSGS”, the “soluble on expression in E. coli” value is reported as “not soluble”.
In the case of “MLRNLILITLLVASGHGQTPVIGGTCKLGTADVQIGGKQTQFFLKCETTADSAEGEGVWVVKSRAAAAPSSVPSVPAENTQPQQHPKARKPASPNICEQDNGARESEVCAVSATCLQAHNDFPSSYLQCDQTTLRWVRKSCQENFLFNFEQQTCIVPKRMSSLSRQQASGLVCTFSSCSNSNPCSVGTCNNGYCCSSGSNSGSAIIVGGGSSNCVGCQNAPQIITIPQNSCPGGGYSVGGCSSGYCATGYSCIQNQCCPSYNSAPRISVYTCPSGGNAVGACMSGRCASGYTCSNNVCCPQTTTTNPFVCPDGTQAAGGCVNGQCGTGYTCSNGLCCAGTSTTVKCLDGSDAVGACIPSCTGDGCGGVQVSYYCGSGYTCTTGNICCPINSCPNGGEVLGPTINGLCPTGYTVQGNLCCSATCTDGSTGLPSVNGVCIDGYSLTNGVCCPASVTCTDEISIGPCTGTGFNGGCPAGYACDSNQVNCCPVVRYTDESCQVGPAIDGLCPPGYVVVYIPNSPLITNGVNPGTCIDLQCTTGLCLTANQIGDCDTATDAGTCPTGYTCFTNAGICCSTTTFSRLRIGNSRQMAQKPNYGRPLHSYMPPPRPIGARCQLDGECVGQAEGLSMCHAGVCQCSPIAYTQGIACVRRKSFQMNDDPVIDAANDDKSSSSVSV”, the “soluble on expression in E. coli” value is reported as “not soluble”.
